Source: PMC6277545, “Structural Basis for the Limited Response to Oxidative and Thiol-Conjugating Agents by Triosephosphate Isomerase From the Photosynthetic Bacteria Synechocystis” (Frontiers in Molecular Biosciences, 2018)

B1: Synechocystis sp. PCC 6803 triosephosphate isomerase (enzyme)
chain: GPHMRKIIIAGNWKMHKTQAEAQAFLQGFKPLIEDAAESREVVLCVPFTDLSGMSQQLHGGRVRLGAQNVHWEASGAYTGEISAAMLTEIGIHYVVIGHSERRQYFGETDETANLRVLAAQKAGLIPILCVGESKAQRDAGETEQVIVDQVKKGLVNVDQSNLVIAYEPIWAIGTGDTCAATEANRVIGLIREQLTNSQVTIQYGGSVNANNVDEIMAQPEIDGALVGGASLEPQSFARIVNFQP
notes: triosephosphate isomerase of Synechocystis sp; PCC 6803, GenBank BAK50928.1; Crystallised with the substrate analog 2-phosphoglycolate (2-PG); also called SyTPI; Synechocystis TPI; source: E. coli BL21 (DE3) Δtpi, purified (HisTrap, PreScission Protease, Superdex 75 gel filtration); not shown: His tag (from the HisTrap column and the modified pET19 vector), N-terminal, cleaved
B2: Arabidopsis thaliana cytosolic triosephosphate isomerase (enzyme, UniProt P48491 1-254, looked up)
chain: MARKFFVGGNWKCNGTAEEVKKIVNTLNEAQVPSQDVVEVVVSPPYVFLPLVKSTLRSDFFVAAQNCWVKKGGAFTGEVSAEMLVNLDIPWVILGHSERRAILNESSEFVGDKVAYALAQGLKVIACVGETLEEREAGSTMDVVAAQTKAIADRVTNWSNVVIAYEPVWAIGTGKVASPAQAQEVHDELRKWLAKNVSADVAATTRIIYGGSVNGGNCKELGGQADVDGFLVGGASLKPEFIDIIKAAEVKKSA
notes: cytosolic triosephosphate isomerase of Arabidopsis thaliana; also called AtcTPI; cytosolic TPI isoform of A. thaliana

Target: the molecule itself
Assay: SEC; Superdex 75 10/300 column, compared with MW standards (conalbumin, ovalbumin, carbonic anhydrase, Ribonuclease A); apparent molecular mass of SyTPI 54 kDa

Protein	stoichiometry N
B1	2
B2	2
